T1/2 data for one substance are collected here from US20240209061A1, “FUSION PROTEINS AND USES THEREOF” (Pfizer Inc., priority 2020, published 2024).

For this data set the following is noted: mouse, in vivo, iv, 0.1 mg/kg.

Procedure: PK of CD80-Fc fusion proteins was also assessed in transgenic mice expressing the human neonatal Fc receptor (huFcRn) a-chain transgene under the control of its natural human promoter. Female mice were dosed intravenously with CD80-Fc fusion proteins at 0.1 mg/kg, and blood was collected at the timepoints indicated on the graph. Levels of CD80-Fc in mouse plasma were measured as described above.

In turn, “CD80-K89D-D90K-T28V-T57V-Fc: non-cysteine stabilized variant CD80-Fc fusion protein (K89D, D90K, T28V, T57V)” gave a T1/2 of 106 h.
